Assay results from patent publication US20120270801A1 (Affibody, published 2012).

Target: T1, recombinant human HER3/Fc chimera (R&D Systems, #348-RB-050) (human, UniProt P21860 20-643)
T1 construct: Bought reagent; Biotinylated for flow cytometry, unlabelled for dot blot, ELISA and SPR; also called biotinylated HER3-Fc; not shown: human IgG Fc-region
Assay: SPR, 2.5 nM HER3-Fc alone injected over immobilised heregulin

B1: heregulin (HRG1-β1, EGF-like domain, R&D Systems) (ligand, human, UniProt Q02297-6 177-241, looked up)
chain: SHLVKCAEKEKTFCVNGGECFMVKDLSNPSRYLCKCPNEFTGDRCQNYVMASFYKHLGIEFMEAE
notes: domain: EGF-like domain; also called human heregulin; HRG1-β, 396-HB
binding result: binds
